Experimental data published in publication PMC3991886, “Characterization of single-stranded DNA-binding proteins from the psychrophilic bacteria Desulfotalea psychrophila, Flavobacterium psychrophilum, Psychrobacter arcticus, Psychrobacter cryohalolentis, Psychromonas ingrahamii, Psychroflexus torquis, and Photobacterium profundum” (BMC Microbiology, 2014).

Legend:
[1] = target: Desulfotalea psychrophila single-stranded DNA-binding protein (Desulfotalea psychrophila); assay: cross-linking; 0.5% (v/v) glutaraldehyde, 15 min, 25°C, 10, 50 or 100 pmol SSB; quenched with 1 M Tris-HCl pH 8.0; SDS-PAGE (12%)
[2] = target: Desulfotalea psychrophila single-stranded DNA-binding protein (Desulfotalea psychrophila); assay: SEC; analytical gel filtration, Superdex 200 10/300 GL, 20 mM Tris-HCl pH 7.5, 150 mM NaCl, 10 mM EDTA, 0.5 ml/min; mass from a regression curve of standard proteins
[3] = target: Desulfotalea psychrophila single-stranded DNA-binding protein (Desulfotalea psychrophila); assay: sedimentation in glycerol gradient; linear 15 to 30% (w/v) glycerol gradients in 50 mM Tris-HCl pH 7.5, 0.5 M NaCl, 1 mM EDTA, 5 mM beta-mercaptoethanol; 50 ul of 300 uM SSB; SW 60 rotor, 46,000 rpm, 24 h, 4°C; fractions by SDS-PAGE; compared with standard proteins, EcoSSB and PhaSSB
[4] = target: Photobacterium profundum single-stranded DNA-binding protein (Photobacterium profundum) (UniProt Q6LM83); assay: cross-linking; 0.5% (v/v) glutaraldehyde, 15 min, 25°C, 10, 50 or 100 pmol SSB; quenched with 1 M Tris-HCl pH 8.0; SDS-PAGE (12%)
[5] = target: Photobacterium profundum single-stranded DNA-binding protein (Photobacterium profundum) (UniProt Q6LM83); assay: SEC; analytical gel filtration, Superdex 200 10/300 GL, 20 mM Tris-HCl pH 7.5, 150 mM NaCl, 10 mM EDTA, 0.5 ml/min; mass from a regression curve of standard proteins
[6] = target: Photobacterium profundum single-stranded DNA-binding protein (Photobacterium profundum) (UniProt Q6LM83); assay: sedimentation in glycerol gradient; linear 15 to 30% (w/v) glycerol gradients in 50 mM Tris-HCl pH 7.5, 0.5 M NaCl, 1 mM EDTA, 5 mM beta-mercaptoethanol; 50 ul of 300 uM SSB; SW 60 rotor, 46,000 rpm, 24 h, 4°C; fractions by SDS-PAGE; compared with standard proteins, EcoSSB and PhaSSB
[7] = target: Psychrobacter arcticus single-stranded DNA-binding protein (Psychrobacter arcticus) (UniProt Q4FR27); assay: cross-linking; 0.5% (v/v) glutaraldehyde, 15 min, 25°C, 10, 50 or 100 pmol SSB; quenched with 1 M Tris-HCl pH 8.0; SDS-PAGE (12%)
[8] = target: Psychrobacter arcticus single-stranded DNA-binding protein (Psychrobacter arcticus) (UniProt Q4FR27); assay: SEC; analytical gel filtration, Superdex 200 10/300 GL, 20 mM Tris-HCl pH 7.5, 150 mM NaCl, 10 mM EDTA, 0.5 ml/min; mass from a regression curve of standard proteins
[9] = target: Psychrobacter arcticus single-stranded DNA-binding protein (Psychrobacter arcticus) (UniProt Q4FR27); assay: sedimentation in glycerol gradient; linear 15 to 30% (w/v) glycerol gradients in 50 mM Tris-HCl pH 7.5, 0.5 M NaCl, 1 mM EDTA, 5 mM beta-mercaptoethanol; 50 ul of 300 uM SSB; SW 60 rotor, 46,000 rpm, 24 h, 4°C; fractions by SDS-PAGE; compared with standard proteins, EcoSSB and PhaSSB
[10] = target: Psychrobacter cryohalolentis single-stranded DNA-binding protein (Psychrobacter cryohalolentis); assay: cross-linking; 0.5% (v/v) glutaraldehyde, 15 min, 25°C, 10, 50 or 100 pmol SSB; quenched with 1 M Tris-HCl pH 8.0; SDS-PAGE (12%)
[11] = target: Psychrobacter cryohalolentis single-stranded DNA-binding protein (Psychrobacter cryohalolentis); assay: SEC; analytical gel filtration, Superdex 200 10/300 GL, 20 mM Tris-HCl pH 7.5, 150 mM NaCl, 10 mM EDTA, 0.5 ml/min; mass from a regression curve of standard proteins
[12] = target: Psychrobacter cryohalolentis single-stranded DNA-binding protein (Psychrobacter cryohalolentis); assay: sedimentation in glycerol gradient; linear 15 to 30% (w/v) glycerol gradients in 50 mM Tris-HCl pH 7.5, 0.5 M NaCl, 1 mM EDTA, 5 mM beta-mercaptoethanol; 50 ul of 300 uM SSB; SW 60 rotor, 46,000 rpm, 24 h, 4°C; fractions by SDS-PAGE; compared with standard proteins, EcoSSB and PhaSSB
[13] = target: Psychroflexus torquis single-stranded DNA-binding protein (Psychroflexus torquis); assay: cross-linking; 0.5% (v/v) glutaraldehyde, 15 min, 25°C, 10, 50 or 100 pmol SSB; quenched with 1 M Tris-HCl pH 8.0; SDS-PAGE (12%)
[14] = target: Psychroflexus torquis single-stranded DNA-binding protein (Psychroflexus torquis); assay: SEC; analytical gel filtration, Superdex 200 10/300 GL, 20 mM Tris-HCl pH 7.5, 150 mM NaCl, 10 mM EDTA, 0.5 ml/min; mass from a regression curve of standard proteins
[15] = target: Psychroflexus torquis single-stranded DNA-binding protein (Psychroflexus torquis); assay: sedimentation in glycerol gradient; linear 15 to 30% (w/v) glycerol gradients in 50 mM Tris-HCl pH 7.5, 0.5 M NaCl, 1 mM EDTA, 5 mM beta-mercaptoethanol; 50 ul of 300 uM SSB; SW 60 rotor, 46,000 rpm, 24 h, 4°C; fractions by SDS-PAGE; compared with standard proteins, EcoSSB and PhaSSB
[16] = target: Psychromonas ingrahamii single-stranded DNA-binding protein (Psychromonas ingrahamii); assay: cross-linking; 0.5% (v/v) glutaraldehyde, 15 min, 25°C, 10, 50 or 100 pmol SSB; quenched with 1 M Tris-HCl pH 8.0; SDS-PAGE (12%)
[17] = target: Psychromonas ingrahamii single-stranded DNA-binding protein (Psychromonas ingrahamii); assay: SEC; analytical gel filtration, Superdex 200 10/300 GL, 20 mM Tris-HCl pH 7.5, 150 mM NaCl, 10 mM EDTA, 0.5 ml/min; mass from a regression curve of standard proteins
[18] = target: Psychromonas ingrahamii single-stranded DNA-binding protein (Psychromonas ingrahamii); assay: sedimentation in glycerol gradient; linear 15 to 30% (w/v) glycerol gradients in 50 mM Tris-HCl pH 7.5, 0.5 M NaCl, 1 mM EDTA, 5 mM beta-mercaptoethanol; 50 ul of 300 uM SSB; SW 60 rotor, 46,000 rpm, 24 h, 4°C; fractions by SDS-PAGE; compared with standard proteins, EcoSSB and PhaSSB
[19] = tested on: DpsSSB (Desulfotalea psychrophila LSv54 (DSM 12343)); assay: fluorescence titration; conditions: 2-300 mM NaCl, site size 31 ± 2 nt, EMSA: 20 mM Tris-HCl pH 8.0, 100 mM NaCl, 1 mM EDTA, 25 C, 2% agarose in TAE, fluorescence titration: 20 mM Tris-HCl pH 8.0, 1 mM EDTA, 2/100/300 mM NaCl
PprSSB = target: T1, PprSSB (Photobacterium profundum (LMG 19446), UniProt Q6LM83 5-187); assay: EMSA; complex I only; EMSA: 20 mM Tris-HCl pH 8.0, 100 mM NaCl, 1 mM EDTA, 25 C, 2% agarose in TAE; fluorescence titration: 20 mM Tris-HCl pH 8.0, 1 mM EDTA, 2/100/300 mM NaCl, 25 C; conditions: protein: recombinant; tags: none (stop codon in reverse primer); chain copies: 4; label: 5'-fluorescein
T1 sequence: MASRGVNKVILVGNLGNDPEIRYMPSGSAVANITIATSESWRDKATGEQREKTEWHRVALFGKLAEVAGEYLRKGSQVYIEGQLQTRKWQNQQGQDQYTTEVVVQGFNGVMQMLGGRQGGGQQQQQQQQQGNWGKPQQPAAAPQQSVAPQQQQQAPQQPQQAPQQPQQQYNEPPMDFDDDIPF

PcrSSB = target: T2, PcrSSB (Psychrobacter cryohalolentis K5 (DSM …, UniProt Q1Q9B8 1-1+=G+2-219, internal_change)); assay: as above; conditions: protein: recombinant; tags: none (stop codon in reverse primer); chain copies: 4; label: 5'-fluorescein
T2 sequence: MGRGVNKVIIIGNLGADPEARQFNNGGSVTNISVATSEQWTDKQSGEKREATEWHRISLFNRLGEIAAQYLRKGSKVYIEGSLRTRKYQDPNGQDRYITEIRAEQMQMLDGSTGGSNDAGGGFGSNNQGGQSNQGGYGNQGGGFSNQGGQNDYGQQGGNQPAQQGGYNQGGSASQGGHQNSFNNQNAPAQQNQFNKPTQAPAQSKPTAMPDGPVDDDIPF

PinSSB = target: T3, PinSSB (Psychromonas ingrahamii 37 (DSM 17664), UniProt A1T012 1-1+=G+2-222, internal_change); assay: as above; conditions: protein: recombinant; tags: none (stop codon in reverse primer); chain copies: 4; label: 5'-fluorescein
T3 sequence: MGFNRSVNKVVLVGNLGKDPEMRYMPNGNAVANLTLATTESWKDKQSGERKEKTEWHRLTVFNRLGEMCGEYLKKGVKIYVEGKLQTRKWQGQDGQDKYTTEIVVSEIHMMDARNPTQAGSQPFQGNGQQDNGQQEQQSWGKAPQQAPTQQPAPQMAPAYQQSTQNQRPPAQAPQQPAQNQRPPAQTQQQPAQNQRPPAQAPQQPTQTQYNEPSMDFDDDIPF

PtoSSB = target: T4, PtoSSB (Psychroflexus torquis ATCC 700755 (LMG …, UniProt K4IS14 1-151)); assay: as above; conditions: protein: recombinant; tags: none (stop codon in reverse primer); chain copies: 4; label: 5'-fluorescein
T4 sequence: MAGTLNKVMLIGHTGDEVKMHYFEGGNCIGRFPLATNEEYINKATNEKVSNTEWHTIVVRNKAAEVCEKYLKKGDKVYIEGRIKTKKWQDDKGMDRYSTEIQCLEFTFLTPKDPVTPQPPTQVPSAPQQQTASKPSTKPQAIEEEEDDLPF

[20] = target: the molecule itself; assay: cross-linking; 0.5% (v/v) glutaraldehyde, 15 min, 25°C, 10, 50 or 100 pmol SSB; quenched with 1 M Tris-HCl pH 8.0; SDS-PAGE (12%)
[21] = target: the molecule itself; assay: SEC; analytical gel filtration, Superdex 200 10/300 GL, 20 mM Tris-HCl pH 7.5, 150 mM NaCl, 10 mM EDTA, 0.5 ml/min; mass from a regression curve of standard proteins

Molecule: Desulfotalea psychrophila single-stranded DNA-binding protein (natural protein)
- stoichiometry N [1]: 4
- stoichiometry N [2]: 3.8 mass monomer
- stoichiometry N [3]: 4

Molecule: Photobacterium profundum single-stranded DNA-binding protein (from UniProt Q6LM83 1-187) (natural protein)
- stoichiometry N [4]: 4
- stoichiometry N (mass monomers) [5]: 4.2
- stoichiometry N [6]: 4

Molecule: Psychrobacter arcticus single-stranded DNA-binding protein (from UniProt Q4FR27 1-213) (natural protein)
- stoichiometry N [7]: 4
- stoichiometry N (mass monomers) [8]: 4.1
- stoichiometry N [9]: 4

Molecule: Psychrobacter cryohalolentis single-stranded DNA-binding protein (natural protein)
- stoichiometry N [10]: 4
- stoichiometry N (mass monomers) [11]: 4.1
- stoichiometry N [12]: 4

Molecule: Psychroflexus torquis single-stranded DNA-binding protein (natural protein)
- stoichiometry N [13]: 4
- stoichiometry N (mass monomers) [14]: 4.2
- stoichiometry N [15]: 4

Molecule: Psychromonas ingrahamii single-stranded DNA-binding protein (natural protein)
- stoichiometry N [16]: 4
- stoichiometry N (mass monomers) [17]: 4.1
- stoichiometry N [18]: 4

Molecule: TTTTTTTTTTTTTTTTTTTTTTTTTTTTTTTTTTTTTTTTTTTTTTTTTTTTTTTTTTTTTTTTTTTTTTTTTTTT [(dT)76]
- binding signal (% Trp fluorescence quench at saturation) [19]: 93

Molecule: TTTTTTTTTTTTTTTTTTTTTTTTTTTTTTTTTTT (ssDNA) [(dT)35]
- binding result (PprSSB): binds
- binding result (PcrSSB): binds
- binding result (PinSSB): binds
- binding result (PtoSSB): binds

B1: Flavobacterium psychrophilum single-stranded DNA-binding protein (natural protein)
chain: MGNGTLNKVMLIGHLGEDIKMHYFDGGNCIGRFPLATNEIYINKSTNEKITSTEWHNVVVRNKAAEICEKYLSKGDKIYVEGRIKSRQWQAEDGTVKYTTEIQVTEFTFLNTKKDSEIVKTASEAPKTTSFDSTVENDLPF
notes: SSB of Flavobacterium psychrophilum JIP02/86 (LMG 13180), 140 amino acid residues including the N-terminal methionine, 15.9 kDa monomer; Cloned in pBAD/myc-HisA between NcoI and HindIII; the reverse primer carries the gene's stop codon, so the vector's C-terminal myc-His tag is probably not on the protein (surmised); The forward primer has two G that are not complementary to the gene, which adds …
- stoichiometry N [20]: 4
- stoichiometry N [21]: 4.4 mass monomer
